Source: PMC12218379 (Scientific Reports, 2025)

Target: the molecule itself
Assay: SEC-MALS

B1: SsRidA (SSA_0809), reactive intermediate deaminase A homolog from Streptococcus sanguinis (enzyme, UniProt A3CM35 1-126, looked up)
chain: MAKTIHTDKAPAAIGPYVQGKIVGNLLFASGQIPLSPETGEIIGTTIEEQTQQVLKNVSAILEAAGTDFDHVVKATCFLSDINDFVAFNEVYKTAFTEAFPARSAVEVARLPKDVKIEIEVIAEIL
Question: Which “stoichiometry N” value does the source give for B1 here?
Answer: 3
